From the DeepSol protein solubility set

Experiment: soluble on expression in E. coli; label from the status in PepcDB or PDB records

Sequence	soluble on expression in E. coli
MFYRDVLIESRERNIFMSKELQIRNSTVDFLVFTRDAREDGIEVRVQNGDVWLTQKAISQLFDVDRSVVTKHLSNIFKEGELDENSTCANFAQVADNGKTYNYKFYSLAAIIAVGYRINSERAMQFRTWATKVLDTFTKQGYVLDKSRLINGQIFDEDYFEHLIAEIQEIRASERRFYQKITDIYATAVDYDKNSQVTREFYATVQNKMHYAVHGNTAAEVIVARANHNKKHMGLKSWKNAPDGKIVKTDVSIAKNYLEKEELAELNEIVTMYLDYATRQARRHIPMTMEDWKTKLDAFLRFNDAEVLQDKGKVTAAIAKEFAESEFEKYRVIQDSLYESDFDKLMNDMEKNDAIH	not soluble
MGADLRYNMEITLEEAFAGKTAQIRVPTSITCDVCSGSGAKPGTQPKTCATCQGSGRVRAAQGFFSVERTCPTCHGRGQTISDPCGKCHGQGRVTEERSLSVNIPSGIEDGTRIRLQGEGEAGMRGGPAGDLYIFLSVRPHEFFQRDGADLYCTVPISMTTAALGGTFDVTTLDGTKSRVTVPEGTQPGKQFRLKGKGMPVLRSAQTGDLYIQIQIETPQKLSKRQRELLQEFEQLSSKENNPLEHHHHHH	soluble
MGAIEDIYEDLETDVPEEEFREAVEEKVEQMGGLADEETAAMLLAHELNENEVNAIADIEPGMDEVKFLAKVMAIGDLKTFERDDEDEDGRVINVEAADESGSLRLAFWDGQAVDIDEGKLEVGDVLRVKGRPKDGYNGLEVSVDKAEPDEDATIDVEPGAGSSIDALTMGQSDVTLRGLVLDTDSIRTFDRDDGSEGRVSNLTLGDETGRIRVTLWDDRADRADELDAGAAVEIIDGYVRERDGSLELHVGDQGAVDEVEDDVAFEPDADPIAEVELEETADIAGVVRSADPKRTFDRDDGSEGQVRNVRIQDATGDIRVALWGDKADKDIAPGDEVLAADVEIQDGWQDDKEASASWNSTIVVLDDGADLATGGAGGGASAETTDAEHAGLSSFGDEGDDTDADSSGNEAAAVSAGTGDTSPDGGAQSAGQQVEFTGTVVQTGDPVVLDDGEQTMSVETGERVQLGQEITVRGELRDDRLHAEDVFLEHHHHHH	not soluble
MGANTKYKDSVFSLLFSDPDLLRELYCALEGVSLPADIPVTINTLRDALFMGMINDISFEIGGKLIILIEHQSTINPNMALRLLMYIARVYEKLIGDRNIYSSRLIHIPRPEFYVLYNGVTPYPDRTTLKLSDMFEKAGAFGLPEKGSAALELEVNVININEGKNEVIAKKCKTLAGYSAFVAKVRAFEKEIGDKTEAMKQAVRYCRDHDILKEFLEQNGTEVMNMLINEWNIEDAKKVWYEDGLSQGLEKGLEKGREEGREEESFSIAQNLVKLGLPIETIISATQLDPDKVKALYQQ	soluble
MGARGRMAASKGAVMSLLLDAYQKRDKLAMVSFRKNEAFVNLPVTSSIELAARMLKEMPVGGRTPFSAGLLKGYEIAQNYLRKEPGGRPLIILVTDGKANRAIGQGKPLDEVFTISEKISREERIRFLVVDTEEPGLVTFGLAKKIAGLLDAWYYRIDDLRADTLVSIVKTMMP	not soluble
MGATEVGDENAGTVSAQPCSRQCCLEDFWALLRRHPAPEPPPWTPVLYPLRTSLPSTLAVFLNLGLSFPKTSITSSWRDWTLHLPFAWSLSVRGPSQCVHVRGGGDHIRRRGG	not soluble
MGATMKPSNKESVQDTVARLRENRNQQQSKVGKNATHSSKEQTPLDTPTRSKASKNAKAVSAAERKTEANKIIKHLLLGELTQGQALKSLRINILGLKQDVFARLVDVSRKTLSDIENDRGSYNTEILNKVFKPFSLKIGLLPSSPDALKSLLMDGEDG	soluble
MGCSSSALNKAGDSSRFPSVTSNEHFSTAEESESCFAQPKPHALGRESTVDGNVQRESRPPLQKLKVSAEPTANGVKPLQEQPLAKDVAPGRDATDQSGSTEKTQPGEGLEESGPPQPGGKEDAPAAEGKKKDAGAGTEAESLKGNAEAQPLGPEAKGQPLQAAVEKDSLRAVEVTENPQTAAEMKPLGTTENVLTLQIAGELQPQGTVGKDEQAPLLETISKENESPEILEGSQFVETAEEQQLQATLGKEEQPQLLERIPKENVTPEVLDRSQLVEKPVMNDPFHKTPEGPGNMEQIQPEGIVGSMEHPARNVEAGAYVEMIRNIHTNEEDQRIEGETGEKVETDMENEKVSEGAETKEEETGEVVDLSAAT	soluble
MGDICETVEATFHGVAYLLTVSTIEGETLCVEVEQKSDCSRWRGDFTSRYIEDITAKTGNFKKFPVFVKMLLSALKQASDSVFVDLLTYQDLEVLKSRKAGGQAPPPRTQPPNNKRYLIMTYAAEFDRVHYPLPLLFEENPDPQHLKRIISQLRSEVEGLQVEAGNRRGGEVSAELRRLREENAALQRQLKQMERSGSGVGAGAESSEARELARELRTVRKERDLLQARVEAAEAELERERGLHRRELRRRAKEQQELVDELGRCKEQIRELKMRIRQLTEDLEARDRRMNSTDRIRSVYARGSNDGSTSGVAPRRPSSGGRGPSSNYMAPTRGADSRSNSRGRGTSSAERSRPNSAPIGGPRPRFDPTEYVRQRKERESAAVGGRRSNAPTPPRSAGTSRASSVVGSRPASAERLPPIRTASPTNSRPSSTERYRPGSGGPPGRTSAGGSRGAADRAGARGPDPYAPRSRGASPSGRATAWGEPGASGGGAGGWSKFPGGGGGGVGGSGQRISSNSPRSMSPARALAEVKQKLSTFVAGRGGSLQGDDASSAHGEHMSQSSKSQVFEDATAEIADIDSRLHALQDFLRMAKTSSTSTSTTQA	not soluble
MGDTDRKLFVLDTNILLHEPFAIFSFQEHDVVIPMTVLEELDRIKDSKRDVARDARVAIRALEDLFKDATPDEISEGIPVSKEKPDQGSISILADFELQETVKAFADKAGDNRILNAVLYLQNKRAPREVVLITKDINMRLRAKGAGVRFVEDYRTDQLIDDIQYLTKGFQQREGDFWSGIDEVESYALGGKTYHKLSREPFDPTFINQYVIDEDSDFAGRVETINEDKLTLLDLSRERMMHRRAWDITPKNIYQAMALDALLDPDIDLVILTGAAGSGKTLLAMAAALEQTIEKGMFDKIIVTRNTPDIGESIGFLPGSEEEKMMPWLAAVTDTLEALHKHDHCTEGSLKYICDKANIQFKSINFMRGRSIQNAFVLLDECQNLTASQIKTIITRCGEGTKIVCSGNLAQIDSHYLTPVTSGLTYMVERFKNFEGSANIHLNGVVRSRLAEFAEENL	soluble
MGDVVADALEKLSADQIEQFRKYFNMFDKEGKGYIRATQVGQILRTMGQAFEERDLKQLIKEFDADGSGEIEFEEFAAMVANFVVNNENDEGLEEELREAFRLYDKEGNGYINVSDLRDILRALDDNVSEEELDEMIAEIDADGSGTVDFDEFMEMMSGE	soluble
MGDVVEMTSELGFKYSILASGSTGNSFYLETPEKKILVDAGLSGKKITSLLAEIDRDPSDLDAILVTHEHKDHIHGVGVLARKYGMDIYANEKTWQIMDSKNMLGKVDNSQKHIFSRGKLLTFGDIDIESFGVSHDAINPQFYRFMKDGKSFVMLTDTGYVSDRMAGLIENADGYLIESNHDIEILRAGSYPWSTKQRILSDQGHLCNEDGADAMIRTIGNKTKKIYLGHLSKENNIKELAYMTMENQLARADFGVGTDFKIFVTSPDTATPLTDILEHHHHHH	not soluble
MGEEKKKRTVEITIGGKLRSFDIDDPVLPDWVEEKKLSAGNFPYDKKMKREDYDATLEALQVELVKVQFWLQATGKRVMAVFEGRDAAGKGGAIFATHAYLNPRYARVVALTKPTETERGQWYFQRYISHFPTAGEFVLFDRSWYNRAGVEPVMGFCTPDEHKRFLKETPRLEKMLVHDDIHLFKFWLDIGRETQIERFHDRRQSPLKCWKLSDMDIAALTKWDDYTQKRDEMLEKTHTDAAPWTVVRANDKRRARVNLIRHILLALDYEGKDRQAIGEIDDKILGSGPDFLK	not soluble
MGELIEGVWHPNWYDTASNGGRFVRSRARFRNWITADGSPGPSGEGGFPAEAGRYHLYVAHACPWAHRTMIFRALKDLAPLIDVSVVHPEMLEDGWTFDRSFPGATGDRLYGLAFLREIYLKADPGISARVTVPVLWDRKRETIVSNESAEIIRMFNAAFDHLTGNRVDFLPEGDLAEIDRLNDRIYGTVNNGVYRAGFATTQEAYDEAAAPLFETLDWLEERLATRRYLVGDRLTEADWRLFTTLVRFDKVYHTHFKCNRRQIVQYPNLWGWLRELWQVPGVAETVHFDHIVRHYYFSHDTINPHRIVPLTPDPDFAAPHGRDQLFQASRLR	not soluble
MGEPVILEAVRTPIGKRNGALRAYRPDALYAKVLDALLERTGIDPGLIGDVVTGCVTQVGEQGANVGRLGVLLSRLPKEVPAVSLNRMCGSSQQAVHFAAQAIAAGDVDFAIAGGVESMTRVPMFADIGGGFHTLNPELGKRYELVHQGESAERIAERYGFCREELDEWGYLSHKRAARATEEGRFSAQILPLEGLDAEGRPFLLTRDEGVRPDVDYEKMLALKPVFREDGVVTAGNSSQISDGAAALLLGDREKALALGLRPRARFLARVVVAGDPTLQLLEVIPAAKKALERAGLSLRDVDVIEVNEAFASVVLAFLRELGADPEKVNPNGGAIAHGHPLGATGAVLMTKLLYELERTGSEFGLQVMCIGHGQATATVIQRL	soluble
MGEQQLDCALDLMRRLPPQHCDKNLTDLIDLCPHLVDDLLSTIDQPLKIAADRETGKQYLLCDYNRDGDSYRSPWSNTYDPPLEDGQLPSEKRRKMEIEANAAFESYRDLYFEGGVSSVYFWDLDNGGFAGIVLIKKEGDGAKNITGCWDSIHVIEITERARQAHYKLTSTIMLWLQTNKSSSGVMNLGGSLTRQHEMDAPINDQNTHLANMGRMIEDQESKMRLTINEIYFGKTKKVMSDLRSTEKQSELEKQDEIVRELNNAMANRGN	soluble
MGESIPLAAPVPVEQAVLETFFSHLGIFSYDKAKDNVEKEREADKSAGGSWLSLLAALAHLAAAEKVYHSLTYLGQKLGGQSFFSRKDSIRTIYTSLHNELKKVVTGRGALGGTAPHVEELLSHLSEQLCFFVQARMEIADFYEKMYTLSTQKFINAEELVGLLDAIMKKYSSRFHHPILSPLESSFQLEVDVLCHLLKAQAQVSEWKFLPSLVNLHSAHTKLQTWGQIFEKQRETKKHLFGGQSQKAVQPPHLFLWLMKLKNMLLAKFSFYFHEALSRQTTASEMKTLTAKANPDFFGKISSFIRKYDAANVSLIFDNRGSESSQGHGYHHPHSYREAPKGVDQYPAVVSLPSDRPVMHWPNVIMIMTDRTSDLNSLEKVVHFYDDKVQSTYFLTRPEPHFTIVIIFESKKSERDSHFISFLNEVSLALKNPKVFASLKPGSKGSCYQCNYFVAFCLDYSKLLLQRK	not soluble
MGFLPISLLHLVIKLLKNSLRKSSRELKDNFYDEPYIVLSELRELKTYFSILSAIAAGKRKPSEMANEVDLEGRKIHSYIETLIRLGFVERDLLVARKEKRWLYIISDPMLMSWFSLVYPKRTEIEIGAMTIDDVKEILQRIFSFRFEQVSREFLIELNRKGNLPFRFTKIGRWWHKEEEIDIVALNEKEKKSLLIEIKWKELKEREIKGILNDLELEGWDKIYGVIAKKVQKKENLWERGFLIWDLEDLDVLAAALEHHHHHH	not soluble
MGGKMEKITCVGHTALDYIFNVEKFPEPNTSIQIPSARKYYGGAAANTAVGIKKLGVNSELLSCVGYDFKNSGYERYLKNLDINISKLYYSEEEETPKAWIFTDKDNNQITFFLWGAAKHYKELNPPNFNTEIVHIATGDPEFNLKCAKKAYGNNLVSFDPGQDLPQYSKEMLLEIIEHTNFLFMNKHEFERASNLLNFEIDDYLERVDALIVTKGSKGSVIYTKDKKIEIPCIKAGKVIDPTGAGDSYRAGFLSAYVKGYDLEKCGLIGAATASFVVEAKGCQTNLPTWDKVVERLEKHRI	soluble
MGGLFVTPAKAVKTTNYAEEIAALQPGTTPEEIMKSASQIAKQQHVKQDVILKQFYKEITADKAEGDRLAKESGMSIMGGSSGTKKLPTSAKGNIYYTNSYTAYYNHGHVGMYSAADKIVESVPSDGVRQIAYNARDVEDNSIVQTVSVSSSQKTAAADWAVSKVGDPYSFNFVNNRNTGHDGAKNCSKLLWSAFLLKAGIDIDSNGGLGVYPRDITSSSYTTTIMTIYLEHHHHHH	not soluble
